Reference: PMC11234873

Target: full-length human Hsp90α (human), P07900
Assay: BLI

Binder | Kd
GRGRGRGRGRGRGRGRGRGRGRGRGRGRGRGRGRGRGRGR (modifications not checked) [GR20 dipeptide repeats] | 8.97 nM
PRPRPRPRPRPRPRPRPRPRPRPRPRPRPRPRPRPRPRPR (modifications not checked) [PR20 dipeptide repeats] | 9.08 nM
